Data as given in patent US20240011046A1 (UNIVERSITY OF PITTSBURGH OF THE COMMONWEALTH SYSTEM OF …, published 2024).
Changes are numbered by the printed parent chain.

Key:
[1] = target: T1, TGF-β type II receptor (TβRII) (UniProt P37173 38-159); test: ITC: TβRII injected into the monomer, three replicate titrations globally fit to a 1:1 binding model (reference control)
T1 construct: Soluble protein: injected in ITC, and 2 µg run on the native gel; also called TGF-β receptor II; transforming growth factor-β type 2 receptor
Method: (§1) In order to evaluate the ability of the mmTGF-β2-7M variants described herein (mmTGF-β2-7M2R (SEQ ID NO: 9), mmTGF-β2-2M-De18-17 (SEQ ID NO: 10), and mmTGF-β2-7M-PRDC (SEQ ID NO: 11)) to bind TβRII, isothermal titration calorimetry (ITC) and native gels were used. The ITC binding experiments were performed by injecting increasing amounts of TβRII into mmTGF-β2-7M2R (SEQ ID NO: 9) or mmTGF-β2-2M-De18-17 (SEQ ID NO: 10), with mmTGF-β2-7M (SEQ ID NO: 7) used a reference control. These titrations yielded readily detectable isotherms with a large negative enthalpy and a near 1:1 binding stoichiometry (FIG. 8).

[2] = target: TGF-β receptor II (TβRII) on the HEK-293 TGF-β CAGA-Luc reporter cells (UniProt P37173 23-567, limits assumed); test: cell-based or functional assay
[3] = target: T1, TGF-β type II receptor (TβRII); test: ITC: TβRII injected into the monomer, three replicate titrations globally fit to a 1:1 binding model
Method: as §1

TGF-β receptor II (TβRII) on the HEK-293 TGF-β CAGA-Luc reporter cells, sequence (P37173 23-567 limits assumed): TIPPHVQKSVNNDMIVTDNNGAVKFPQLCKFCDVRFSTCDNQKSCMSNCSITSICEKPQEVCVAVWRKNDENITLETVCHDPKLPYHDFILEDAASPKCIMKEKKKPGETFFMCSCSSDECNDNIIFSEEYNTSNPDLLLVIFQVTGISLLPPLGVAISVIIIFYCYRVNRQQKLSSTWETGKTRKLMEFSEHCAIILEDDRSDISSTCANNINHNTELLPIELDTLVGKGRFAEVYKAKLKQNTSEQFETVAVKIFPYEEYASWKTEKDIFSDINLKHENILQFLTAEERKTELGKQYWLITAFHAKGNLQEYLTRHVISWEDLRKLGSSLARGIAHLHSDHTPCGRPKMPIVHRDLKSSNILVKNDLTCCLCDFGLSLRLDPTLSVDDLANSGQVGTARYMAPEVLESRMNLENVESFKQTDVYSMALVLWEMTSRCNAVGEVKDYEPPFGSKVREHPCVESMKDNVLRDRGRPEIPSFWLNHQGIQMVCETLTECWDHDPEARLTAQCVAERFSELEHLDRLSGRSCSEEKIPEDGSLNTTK
T1 sequence (P37173 38-159 limits assumed): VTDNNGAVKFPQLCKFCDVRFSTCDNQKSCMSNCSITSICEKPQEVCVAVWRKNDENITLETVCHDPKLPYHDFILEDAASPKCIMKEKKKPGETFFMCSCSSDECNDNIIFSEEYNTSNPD

B1: mmTGF-β2-7M (designed binder)
chain: ALDAAYCFRNVQDNCCLRPLYIDFRKDLGWKWIHEPKGYNANFCAGACPYRASKSPSCVSQDLEPLTIVYYVGRKPKVEQLSNMIVKSCKCS
notes: also called dnTGFβ2^mm; mini-monomer
- Kd [1]: 60.5 nM
- HEK-293 CAGA-Luc TGF-β reporter assay, inhibition of signaling stimulated by 10 pM TGF-β3, IC50 [2]: 58.2 nM

B2: mmTGF-β2-2M-Del8-17 (designed binder)
chain: B1 chain with C7V, C16A, K26R, V69L, V72I, K75T, V78I
notes: The 8-17 disulfide is eliminated; also called mmTGF-β2-2M-De18-17; mmTGF-β2-2M-De18_17
- HEK-293 CAGA-Luc TGF-β reporter assay, inhibition of signaling stimulated by 10 pM TGF-β3, IC50 [2]: 111 nM
- Kd [3]: 80.1 nM

B3: mmTGF-β2-7M2R (designed binder)
chain: B1 chain with S57R, V59R
notes: Made to reduce aggregation
- HEK-293 CAGA-Luc TGF-β reporter assay, inhibition of signaling stimulated by 10 pM TGF-β3, IC50 [2]: 53.3 nM
- Kd [3]: 75.1 nM

B4: mmTGF-β2-7M-PRDC (designed binder)
chain: KEVLASSQEALVVTERKYLKSDWCKLRPLYIDFRKDLGWKWIHEPKGYNANFCYGQCNSFYIPRHVKKEEDSFQSSAFCVSQDLEPLTIVYYVGRKPKVEQLSNMIVKSCRCMSV
- HEK-293 CAGA-Luc TGF-β reporter assay, IC50 relative to mmTGF-β2-7M [2]: ~5 fold
- HEK-293 CAGA-Luc TGF-β reporter assay, inhibition of signaling stimulated by 10 pM TGF-β3, IC50 [2]: 282 nM
